Measurements taken from patent US20130260458A1, “METHOD OF INDUCING DIFFERENTIATION OF HUMAN PLURIPOTENT STEM CELL INTO HEPATIC PROGENITOR CELL” (NATIONAL UNIVERSITY CORPORATION CHIBA UNIVERSITY, priority 2012, published 2013).
Entries after “also recorded” stand apart in the source; their conditions may differ.

B1: epidermal growth factor (protein, UniProt P01133 23-1207, looked up)
Pro-epidermal growth factor: PQHWSCPEGTLAGNGNSTCVGPAPFLIFSHGNSIFRIDTEGTNYEQLVVDAGVSVIMDFHYNEKRIYWVDLERQLLQRVFLNGSRQERVCNIEKNVSGMAINWINEEVIWSNQQEGIITVTDMKGNNSHILLSALKYPANVAVDPVERFIFWSSEVAGSLYRADLDGVGVKALLETSEKITAVSLDVLDKRLFWIQYNREGSNSLICSCDYDGGSVHISKHPTQHNLFAMSLFGDRIFYSTWKMKTIWIANKHTGKDMVRINLHSSFVPLGELKVVHPLAQPKAEDDTWEPEQKLCKLRKGNCSSTVCGQDLQSHLCMCAEGYALSRDRKYCEDVNECAFWNHGCTLGCKNTPGSYYCTCPVGFVLLPDGKRCHQLVSCPRNVSECSHDCVLTSEGPLCFCPEGSVLERDGKTCSGCSSPDNGGCSQLCVPLSPVSWECDCFPGYDLQLDEKSCAASGPQPFLLFANSQDIRHMHFDGTDYGTLLSQQMGMVYALDHDPVENKIYFAHTALKWIERANMDGSQRERLIEEGVDVPEGLAVDWIGRRFYWTDRGKSLIGRSDLNGKRSKIITKENISQPRGIAVHPMAKRLFWTDTGINPRIESSSLQGLGRLVIASSDLIWPSGITIDFLTDKLYWCDAKQSVIEMANLDGSKRRRLTQNDVGHPFAVAVFEDYVWFSDWAMPSVMRVNKRTGKDRVRLQGSMLKPSSLVVVHPLAKPGADPCLYQNGGCEHICKKRLGTAWCSCREGFMKASDGKTCLALDGHQLLAGGEVDLKNQVTPLDILSKTRVSEDNITESQHMLVAEIMVSDQDDCAPVGCSMYARCISEGEDATCQCLKGFAGDGKLCSDIDECEMGVPVCPPASSKCINTEGGYVCRCSEGYQGDGIHCLDIDECQLGEHSCGENASCTNTEGGYTCMCAGRLSEPGLICPDSTPPPHLREDDHHYSVRNSDSECPLSHDGYCLHDGVCMYIEALDKYACNCVVGYIGERCQYRDLKWWELRHAGHGQQQKVIVVAVCVVVLVMLLLLSLWGAHYYRTQKLLSKNPKNPYEESSRDVRSRRPADTEDGMSSCPQPWFVVIKEHQDLKNGGQPVAGEDGQAADGSMQPTSWRQEPQLCGMGTEQGCWIPVSSDKGSCPQVMERSFHMPSYGTQTLEGGVEKPHSLLSANPLWQQRALDPPHQMELTQ
modifications: Pro-epidermal growth factor
notes: growth factor used as growth-promoting agent (Wako Pure Chemical Industries)
B2: oncostatin M (protein, UniProt P13725 26-221, looked up)
Oncostatin-M: AAIGSCSKEYRVLLGQLQKQTDLMQDTSRLLDPYIRIQGLDVPKLREHCRERPGAFPSEETLRGLGRRGFLQTLNATLGCVLHRLADLEQRLPKAQDLERSGLNIEDLEKLQMARPNILGLRNNIYCMAQLLDNSDTAEPTKAGRGASQPPTPTPASDAFQRKLEGCRFLHGYHRFMHSVGRVFSKWGESPNRSRR
notes: as for B1

Key:
Human iPS cells (201B7) [1] = test: Expression of transcription factors in iPS cells cultured with single growth-promoting agents (RT-PCR, electrophoresis); format: cell-based; conditions: iPS cells in iPSm(−) medium with the growth-promoting agent added; PCR and electrophoresis, FIG. 2
Method: Reverse transcriptase (Life Technologies Japan Ltd.) was used to synthesize cDNAs of iPS cells, fetal hepatic cells and adult hepatic cells from 3 μg of RNA. The cDNAs were subjected to polymerase chain reaction (PCR) using the following primers to GATA4, FOXA2, HEX, C/EBPα and C/EBPβ, respectively, and to electrophoresis using 2% low-melting agarose (Lonza) and 1×TAE, for investigations on the expression of GATA4, FOXA2, HEX, C/EBPα and C/EBNβ in the iPS cells, fetal hepatic cells and adult hepatic cells.
After electrophoresis, the 2% low-melting agarose was irradiated with ultraviolet rays at 254 nm from a UV transilluminator (UVP LLC, NLMS-20E), and a Polaroid photograph (FUJIFILM Corporation, FP-3000B) thereof was taken with a gel camera (Funakoshi DS-300) to analyze an electrophoretic pattern.
PCR cycles performed included 30 cycles of thermal denaturation: 1 minute at 94° C.; annealing: 1 minute and elongation reaction: 1 minute at 72° C.
Human iPS cells (201B7, RIKEN cell bank) were seeded onto a matrigel-coated 6-well plate, and cultured in a feeder-less medium, ReproFF (trade name, Reprocell Inc.) for culture of stem cells maintained in an undifferentiated state, without using a feeder cell, under conventional conditions: 37° C. and 5% carbon dioxide.
A medium obtained by adding a 20% knock-out serum replacement (Life Technologies Japan Ltd.), 10% Minimum Essential Amino Acids (Life Technologies Japan Ltd.), 2 mM of L-glutamine (Life Technologies Japan Ltd.) and 1 mM of 2-mercaptoethanol to a D-MEM/F12 medium (Dulbecco's Modified Eagle Medium-F12 medium, Sigma-Aldrich Japan) was used as an iPSm(−) medium.
The following growth-promoting agents were added to the iPSm(−) medium, and SOX-17, GATA6, FOXA2, GATA4, HEX, TTR and C/EBPα were expressed in a manner similar to that in Experiment 1.
As the growth-promoting agents, added were bFGF (basic fibroblast growth factor, Wako Pure Chemical Industries, Ltd.), BMP (bone morphogenetic protein)-4 (Wako Pure Chemical Industries, Ltd.), oncostatinM (Wako Pure Chemical Industries, Ltd.), an epidermal growth factor (EGF, Wako Pure Chemical Industries, Ltd.), a nerve growth factor (NGF, R & D Systems, Inc.), TGF-β, (transform growth factor-β, R& D Systems, Inc.), retinoic acid (Sigma-Aldrich Japan) and a hepatic cell growth factor (HGF, Sigma-Aldrich Japan).
RT-PCR to SOX-17, GATA6 and TTR was performed under the following conditions.

Human iPS cells (201B7) [2] = test: Induction of differentiation into hepatic progenitor cells by growth-promoting agents (real-time quantitative PCR of AFP and DLK-1); format: cell-based; conditions: iPS cells transfected with FOXA2, GATA4, HEX, C/EBPα three times every three days, 8th day, n=3, ± standard error, ReproFF lane = 100
Method: Human iPS cells (201B7, RIKEN cell bank) were seeded onto a matrigel-coated 6-well plate, and cultured in a medium, ReproFF in accordance with a conventional method under the following conditions: 37° C. and 5% carbon dioxide. A lipofection reagent, Lipofectamine LTX (registered trade mark, Life Technologies Japan Ltd.) was used to transfect 0.5 μg of expression plasmids of FOXA2, GATA4, HEX and C/EBPα, respectively. […]
The transfection of the transcription factors was repeated three times every three days, and, on the 8th day, RNA was extracted using Isogen (NIPPON GENE CO., LTD.). […] Then, the amount of expressed α-fetoprotein (AFP), which was an indicator of hepatic progenitor cells, was analyzed by the real-time quantitative PCR method using a real-time PCR analysis reagent, Fast SYBR Green Master Mix (trade name, Life Technologies Japan Ltd.). […] The amounts of α-fetoprotein (AFP) and Delta-like (DLK)-1 expressed were quantitatively determined as an indicator of hepatic progenitor cells by employing ribosome-related protein (RLP19) as internal standard (each group, n=3).
The real-time quantitative PCR was performed by using the following primers through a PCR cycle including 30 cycles of 5 seconds at 95° C. and 20 seconds at 60° C.

Row | Molecule | expression of C/EBPα (Human iPS cells (201B7) [1]) | expression of FOXA2 (Human iPS cells (201B7) [1]) | expression of GATA4 (Human iPS cells (201B7) [1]) | expression of GATA6 (Human iPS cells (201B7) [1]) | expression of HEX (Human iPS cells (201B7) [1]) | α-fetoprotein/RPL19 ratio (mRNA expression) (Human iPS cells (201B7) [2]; FIG. 3-1) | DLK-1/RPL19 ratio (mRNA expression) (Human iPS cells (201B7) [2]; FIG. 3-2) | expression of SOX-17 (Human iPS cells (201B7) [1])
1 | B1 | not observed to be expressed | not observed to be expressed | not observed to be expressed | observed to be expressed | not observed to be expressed | 139±13 | 59±7 | 
2 | B2 | slightly expressed; also recorded: not observed to be expressed | not observed to be expressed | not observed to be expressed |  | not observed to be expressed |  |  | observed to be expressed
